Measured values as given in the nanobody polyreactivity screen of Harvey et al. (2022).

Experiment: yeast display, Sf9 membrane polyspecificity reagent, FACS + sequencing; frameworks hold sequencing errors
Method in brief: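 Synthetic nanobody libraries on Saccharomyces cerevisiae BJ5465 were galactose-induced for 36–48 hours, stained 1 hour at 4 °C with 10% biotinylated, detergent-solubilized Sf9 membrane reagent and enriched on streptavidin microbeads. FACS then separated cells into low and high (top ~1%) gates by anti-HA (expression) and streptavidin (reagent binding) fluorescence. Genes were colony-PCR amplified, MiSeq 2 × 250 sequenced and CDR-length filtered. A clone's polyreactivity label is that of its gate of origin.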

With “QVQLVESGGGLVQAGGSLRLSCAASGSTFTGYAMGWYRQAPGKERELVASISYSGGSTYYADSVKGRFTISRDNAKNTVYLQMNSLKPEDTAVYYCNALQQYALSRYYWGQGTQVTVSS” the “polyreactivity (PSR sort gate)” value was “high polyreactivity”.

For “QVQLVESGGGLVQAGGSLRLSCDASGSTFDSYAMGWYRQAPGKERELVAAINQGGGSTYYADSVKGRFTISRDNAKNTVYLQMNSLKPEDTAVYYCGADRSGSFYKLDYWGQGTQVTVSS”, the “polyreactivity (PSR sort gate)” value was “low polyreactivity”.

In the case of “QVQLVESGGGLVQAGGSLRLSCAASGRTFALNAMGWYRQAPGKERELVADISYSGGSTYYADSVKGRFTISRDNAKNTVYLQMNSLKPEDTAVYYCAADSPWYVAYYYGYRVDYWGQGTQVTVSS”, the “polyreactivity (PSR sort gate)” value is reported as “high polyreactivity”.

For “QDQLVESGGGLVQAGRSLRLSCAASGRIFYYNAMGWYRQAPGKERELVAAISYTDDSTYADSVKGRFTISRDNAKNTVYLQLNSLKPEDTAVYYCAADAVAYIYGYDYDYWGQGTQVTVSS”, the “polyreactivity (PSR sort gate)” value was “low polyreactivity”.

With “QVQLVESGGGIVQAGGSLRLSCAASGRIFGIYAMGWYRQAPGKERELVASITDGTITNYADSVKGRFTISRDNAKYTVYLQMNSLKPEDTAVYYCAAGTQAHAYVVRPIEMDYWGQGTQVTVSS” the “polyreactivity (PSR sort gate)” value was “low polyreactivity”.

With “QVQLVESGGGLVQAGGCLRLSCAASGFTFWWYAMGWYRQAPGKERELVAAISSGGSTNYADSVKGRFTLSRDNAKNTVYLQMNSLQPEDTAVYYCARRLWYSDRYSARWQYDYWGQVTQVTVSS” the “polyreactivity (PSR sort gate)” value was “high polyreactivity”.

In the case of “QVQLVESGGGLVQAGGSLRLSCAASGFTFWRYAMGWYREAPGKERELVAAITGLGRTNYADSVKGRFTISRDNAKNTVYLQMNSLKPEDTADYYCNVVRVYRYDYWGQGTQVTVSS”, the “polyreactivity (PSR sort gate)” value is reported as “high polyreactivity”.

With “QVQLVESGGGLVQAGGSLRLICAASGRTFSYYAMGWYRQAPGKERELVATIRFSGGGTYYADSVKGRFTISRDNAKNTVYLQMNSLKPEDTAVYYCNADSIDPFLYDYWGQGTQVTVSS” the “polyreactivity (PSR sort gate)” value was “low polyreactivity”.

With “QVQLVESGGGLVQAGGSLRLSCAASGSTFRYYAMGWYRKAPGKERELVAAITSSGGSTYYADSVKGRFTISRDNAKNTVYLQMNSLKPEDTAVYYCAVAVKNWVKLNYWGQGTQVTVSS” the “polyreactivity (PSR sort gate)” value was “high polyreactivity”.

With “QVQLVESGGGLVQAGGSLGLSCAASGRTFTPYAMGWYRQAPGIERELVAAIDTSGGSTYADSVKGRFTMSRDNAKNTVYLQMNSLKQEDTAVYYCNVDSAWYPYETEDDWGQGTQVTVSS” the “polyreactivity (PSR sort gate)” value was “low polyreactivity”.

With “QVQLVESGGGLVQAGGSLRLSCAASGSIFITYAMGWYRQAPGKEMELVAAIRDSGDRTYYADSVKGRFTISRDNAKNTVYLQMNSLKPVDTAVYYCNARWEEPLKYDYWGQGTQVTVSS” the “polyreactivity (PSR sort gate)” value was “low polyreactivity”.

For “QVQLVESGGGLVQAGGSLRLSCAASGRIFAPYDMGWYRQAPGKERELVAAISRSGGSTYYADSVKGRFTISRDNAKNSVYFQLNSLKPEDTAVYYCAASYPGRYWLYRYEYWGQGTQVTVSS”, the “polyreactivity (PSR sort gate)” value was “high polyreactivity”.

In the case of “QVQLVESGGGLVQEGGSLRLSCADSGFIFRRYAMGWYIQAPGKERELVAAIRSDGSTNYADSVKGRFTISRDNAKNTVYLQMNSLKPEDTAVYYCAATYYSYTWFSQYYYWGQGTQVTVSS”, the “polyreactivity (PSR sort gate)” value is reported as “high polyreactivity”.

With “QFQLVESGGGLVQAGGSLRLSCAATGRIFYKYAMGWYRQAPRKETELVAAISSSGGRTYYADSVKGRFTISRDNAKNTVYLQMNSLKPEDSAVYYCGARIHYPSLPYDYWGQGTQVTVSS” the “polyreactivity (PSR sort gate)” value was “low polyreactivity”.

With “QVQLVESGGGLVQAGGSPRLSCAASGFTFYLYAMGWYRQAPGKERELVAAITRVGSTYYADSVKGRFTISRDNAKNTVYLQMNSLKPEDSAVYYCATDLSQVGFDYWGQGTQVSVSS” the “polyreactivity (PSR sort gate)” value was “high polyreactivity”.

With “QVQLVESGGGLVQAGGSLRLSCAASGIILPTYVMGWYRQAPGKERELVAAISRRGGSTYYADSVKGRFTISRDNAKNTVYLQMNSLKPEDTAVYYCNAVSNPVGSAYDYWGQGTQVTVSS” the “polyreactivity (PSR sort gate)” value was “high polyreactivity”.

With “QVQLVESGGGLVQAGGSLRLSCAASGFIFRFNAMGWYRQAPGKERQLVAAISGSGGITYYADSVKGRFTISRDNAKNTVYLQMNSLKPEDTAVYYCAARPLFGWRGYNYWGQGTQVTVSS” the “polyreactivity (PSR sort gate)” value was “high polyreactivity”.
